Test results taken from patent publication US20230071321A1 (VIB VZW, published 2023).
Read-outs that look alike come from different tables or passages of the source.

Legend:
[1] = target: T1, hCXCR4Rho1D4 (full-length human CXCR4 receptor with C-terminal Rho1D4 tag) (human, UniProt P61072 6-352 (Pan troglodytes entry)); assay: cell-based or functional assay
[2] = target: T1, hCXCR4Rho1D4 (full-length human CXCR4 …); assay: cell-based or functional assay; remark: listed apart in the source
[3] = target: T1, hCXCR4Rho1D4 (full-length human CXCR4 …); assay: control Nanobody co-expressed with hCXCR4Rho1D4 in P. pastoris; receptor level read by anti-Rho1D4 immunoblot
Source text: Equal amounts of total membrane protein (determined by a BCA assay) of induced P. pastoris GS115 clones, expressing only the human CXCR4 receptor, or in combination with a anti-hCXCR4 Nanobody (NbCA4142), or in combination with the negative control Nanobody (NbCA4910), were run on a 12% SDS-PAGE gel and blotted on a nitrocellulose membrane. The blot was developed with a primary mouse anti-Rho1D4 monoclonal antibody and a secondary Dylight (800 nm) goat anti-mouse IgG on an LI-COR odyssey system. For the hCXCR4-specific Nb co-expressing clone we detect more of the anti-Rho1D4 immunoreactive membrane protein band compared to the GS115hCXCR4 clone without Nb co-expression. […] Exact quantification has been calculated by the Odyssey software by measuring relative fluorescent signals (Table 4). It can, thus, be concluded that the increase in receptor expression can be attributed to the Nanobody-specific interaction with the receptor.
Protein samples were analyzed by SDS-poly-acrylamide gel electrophoresis, according to the Laemmli (Laemmli et al., 1970, Nature, 227:680) or the Tricine method (Schagger et al., 2006, Nat. Protoc. 1:16-22). Before loading on gel, the samples were mixed with 5×Laemmli (60 mM Tris-HCl pH 6,8; 2% SDS, 10% glycerol, 5% β-ME; 0.01% bromophenol blue) and heated for 10 minutes at 95° C. (only the ECM samples, not the membrane protein preparations). […]

T1 sequence (P61072 other isoform, or with tags, fused parts or gaps limits assumed): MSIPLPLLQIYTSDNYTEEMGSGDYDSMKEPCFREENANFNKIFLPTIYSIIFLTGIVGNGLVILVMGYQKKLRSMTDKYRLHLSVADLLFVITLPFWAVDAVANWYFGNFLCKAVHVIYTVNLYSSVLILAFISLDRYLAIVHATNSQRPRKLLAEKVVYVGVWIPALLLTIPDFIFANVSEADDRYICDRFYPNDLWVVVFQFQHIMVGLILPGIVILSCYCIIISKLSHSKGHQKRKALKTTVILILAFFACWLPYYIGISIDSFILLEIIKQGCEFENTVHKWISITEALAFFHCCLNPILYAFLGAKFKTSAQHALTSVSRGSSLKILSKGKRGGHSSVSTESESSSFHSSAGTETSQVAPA

B1: Nanobody CA4140 (VHH)
VHH: QVQLQESGGGLVQPGGSLRLSCAASGSIFSINAMGWYRQAPGKQRELVAAITSGGSTNYADSVKGRFTISRDNAENTVYLQMNNLKPEDTAVYSCNAEGTSGSSRYRRRYEYWGKGTQVTVSS
Factor improvement (relative hCXCR4 expression, anti-Rho1D4 immunoblot fluorescence) [1]: 2.8 fold

B2: Nanobody CA4142 (VHH)
VHH: QVQLQESGGGLVRTGGSLRLSCAGSGSFFSINPMGWYRQAPGQQRELVATITGSGSTNYADSVKGRFTISRDNAKNTLYLQMNSLKPEDTAVYYCNAGYFDRIGRRYDRWGQGTQVTVSS
Factor improvement (relative hCXCR4 expression, anti-Rho1D4 immunoblot fluorescence) [1]: 2.6 fold | Factor improvement (relative hCXCR4 expression, anti-Rho1D4 immunoblot fluorescence) [2]: 1.9 fold

B3: Nanobody CA4143 (VHH)
VHH: QVQLQESGGGLVQPGGSLRLSCAASGFTFSSYAMSWVRQAPGKGLEWVSTINSGGRSANYADSVKGRLTISRDNAKNTLHLQMNSLKPEDTALYYCARPRSVSRNYVPLGYDYLGQGTQVTVSS
Factor improvement (relative hCXCR4 expression, anti-Rho1D4 immunoblot fluorescence) [1]: 3 fold

B4: Nanobody CA4500 (VHH)
VHH: QVQLQESGGGLVQAGGSLRLSCAASGSTSGIIAMGWYRQAPGKQRELVARISSGSSTNYADSVKGRFTVSRDNAKNTVYLQMNSLKPEDTAVYYCNAVRRGYRNDYNSWGQGTQVTVSS
Factor improvement (relative hCXCR4 expression, anti-Rho1D4 immunoblot fluorescence) [1]: 1.3 fold

B5: Nanobody CA4910 (VHH)
VHH: QVQLVESGGGLVQPGGSLRLSCAASGSFRSIVSMAWYRQAPGKQRELVASSNSGGSTNYADSVKGRFTISRDNAKNTVYLQMNSLKPEDTAVYWCNVQNRLPGFDAFSGRSIAETYWGQGTQVTVSS
notes: It was co-expressed in P. pastoris as a control; also called NbCA4910; Nb4910
binding result [3]: no binding | Factor improvement (relative hCXCR4 expression, anti-Rho1D4 immunoblot fluorescence), clone 1 [2]: 0.4 fold | Factor improvement (relative hCXCR4 expression, anti-Rho1D4 immunoblot fluorescence), clone 2 [2]: 1.1 fold | Factor improvement (relative hCXCR4 expression, anti-Rho1D4 immunoblot fluorescence), clone 3 [2]: 1.2 fold
